The results in this text go back to patent US20170058030A1.

Bounds are passed on as bounds.

As usually defined, the IC50 is the concentration at which inhibition is half-maximal. High values mean lower potency, low ones higher potency. The EC50 (read off the curve) is the concentration at which the effect is half-maximal. Read a low EC50 (read off the curve) as higher potency in that assay.

The target in assay [1] is FcγRI-His (human) (UniProt P12314). As to the kind of experiment: ELISA, IgG coated, 60 nM FcγRI. (In general: ELISA stands for enzyme-linked immunosorbent assay.)
The target of assay [2] is FcγRIIb-GST (human) (UniProt P31994). As to the kind of experiment: ELISA, IgG coated, 60 nM receptor.
The target of assay [3] is FcγRIIIa-F158-GST (human) (UniProt P08637). As to the kind of experiment: ELISA, IgG coated, 200 nM receptor.
Assay [4] deals with FcγRIIIa-V158-GST (human) (UniProt P08637). Kind of assay: ELISA, IgG coated, 200 nM receptor.
Assay [5] has as its target FcγRIIa-H131-GST (human) (UniProt P12318). As to the kind of experiment: ELISA, IgG coated, 200 nM receptor.
The target of assay [6] is FcγRIIa-R131-GST (human) (UniProt P12318). Kind of assay: ELISA, IgG coated, 200 nM receptor.
Assay [7] has as its target FcγRI-His (human) (UniProt P12314). As to the kind of experiment: SPR, IgG on chip, 200 nM monomeric FcγRI. (SPR reads the build-up and loss of mass on a sensor chip optically.)
For assay [8], the target named is FcγRIIb-GST (human) (UniProt P31994). Kind of assay: SPR, IgG on chip, dimeric FcγRIIB, bivalent fit.
For assay [9] the target is unchanged. Kind of assay: SPR, IgG on chip, dimeric FcγRIIB, bivalent fit, KD = KD1/(1 + 1/KD2).
The target in assay [10] is FcγRIIIa-V158-GST (human) (UniProt P08637). Kind of assay: ELISA, STPK-Fc coated, receptor titrated.
The target in assay [11] is mFcγRII-His (mouse).
Assay [12] has as its target mFcγRIII-His (mouse) (UniProt P08508).
In assay [13] the target is FcγRIIa-H131-GST (human) (UniProt P12318). As to the kind of experiment: ELISA: antibody coated on the plate, receptor titrated in 5-fold steps, HRP-labelled secondary antibody, absorbance at 450 nm.
The target in assay [14] is FcγRIIa-R131-GST (human) (UniProt P12318). Described as above.
Assay [15] has as its target FcγRIIb-GST (human) (UniProt P31994). As to the kind of experiment: FACS on spheroplasts, 400 nM FcγRIIB-GST.
Assay [16] has as its target FcγRIIA (H131 and R131)-GST (human) (UniProt P12318). Kind of assay: FACS on spheroplasts, 400 nM FcγRIIA-GST.
The target in assay [17] is FcγRIIb-GST (human) (UniProt P31994). Kind of assay: FACS on spheroplasts, 400 nM FcγRIIB-GST. This is another data set of the same source.
For assay [18] the target is unchanged. Kind of assay: FACS on spheroplasts, 100 nM FcγRIIb-GST-PE.
The target of assay [19] is mFcγRII-His (mouse). As to the kind of experiment: FACS on spheroplasts, 100 nM b-mFcγRII, SA-PE.
A further assay concerns the target mFcγRI-His (mouse) (UniProt P08101). Kind of assay: FACS on spheroplasts, 1 µM mFcγRI, anti-His-PE.
A further assay addresses mFcγRIV-His (mouse). As to the kind of experiment: FACS on spheroplasts, 1 µM mFcγRIV, anti-His-PE.
For assay [20], the target named is mFcγRIII-His (mouse) (UniProt P08508). Kind of assay: FACS on spheroplasts, 1 µM mFcγRIII, anti-His-PE.

Take “Rituximab (glycosylated, wild-type IgG1 Fc) (antibody)”: the absorbance at 450 nm is 1.51 with FcγRI-His (human) [1]; 0.183 with FcγRIIb-GST (human) [2]; 0.203 in [3]; 0.848 in assay [4]; 2.35 in the assay with FcγRIIa-H131-GST (human) [5]; 1.44 with FcγRIIa-R131-GST (human) [6]. This substance showed an RUmax with FcγRI-His (human) [7] of 260 RU. In the assay with FcγRIIb-GST (human) [8], this substance displayed a kD1 of 8.69e-06. This substance displayed a kD2 in the assay with FcγRIIb-GST (human) [8] of 13.1. In addition, the Kd with FcγRIIb-GST (human) [9] is 8.07 µM.
Consider “STPK-mFc (from UniProt P00779 27-440) (Fc fusion)”, for which the IC50 in assay [10] is more than 0.3 µM. Also, the Kd with mFcγRII-His (mouse) [11] turned out to be 16.1 µM; with mFcγRIII-His (mouse) [12], 14.9 µM.
Regarding “glycosylated wild type IgG1 (control of Example 10) (antibody)”, the 50% effective concentration (EC50 (read off the curve)) with FcγRIIa-H131-GST (human) [13] amounted to 0.04 µM; in the assay with FcγRIIa-R131-GST (human) [14] it was 0.01 µM.
With “wild-type aglycosylated IgG1 displayed on E. coli spheroplasts (antibody)”, the MFI in the assay with FcγRIIb-GST (human) [15] amounted to 11.1; in assay [16], 40.9; with FcγRIIb-GST (human) [17], 14; with FcγRIIb-GST (human) [18], 23.5.
Regarding “wild-type aglycosylated mIgG1 displayed on E. coli spheroplasts (antibody)”, the MFI with mFcγRII-His (mouse) [19] is 61.8; in the assay with mFcγRI-His (mouse) it was 515; with mFcγRIV-His (mouse), 155; with mFcγRIII-His (mouse) [20], 143.
